Assay results as given in patent US6855515.

Target: caspase-9 (UniProt P55211)
Assay: Ki printed in running text; no assay described

Ki: 60 nM
Substance: Ac-DEVD-CHO, N-(N-Ac-Asp-Glu-Val)-3-amino-4-oxobutanoic acid (peptide)
